Source: paper PMC9006298

Molecular target: p.Arg127Gln GPIbα (amino acids Met1-Glu301) (human) (UniProt P07359)
Test: SPR

Chain of UniProt P07359 (P07359 17-301 R127Q): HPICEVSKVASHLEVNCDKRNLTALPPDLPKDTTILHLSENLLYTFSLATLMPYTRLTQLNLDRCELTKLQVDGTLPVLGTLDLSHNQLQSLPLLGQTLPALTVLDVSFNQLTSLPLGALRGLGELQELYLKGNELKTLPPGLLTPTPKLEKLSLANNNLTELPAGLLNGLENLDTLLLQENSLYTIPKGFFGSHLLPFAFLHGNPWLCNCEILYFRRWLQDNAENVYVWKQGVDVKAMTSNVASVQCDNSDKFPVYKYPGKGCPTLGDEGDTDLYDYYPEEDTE

Kd: 2040 nM
Substance: VWF A1 domain (domain or fragment)
